From paper PMC9864903, “Imaging of the Glucose-Dependent Insulinotropic Polypeptide Receptor Using a Novel Radiolabeled Peptide Rationally Designed Based on Endogenous GIP and Synthetic Exendin-4 Sequences” (Pharmaceuticals, 2022)

Key:
[1] = assay type: in vitro ADME; settings: 37 °C, polyacrylamide gel electrophoresis with autoradiography
Method: Stability of [^68Ga]Ga-GIP-C803 was studied in human plasma, wherein the agent was incubated at 37 °C for under 30 s, 5 min, 45 min, and 90 min. Thereafter, the samples were analyzed by polyacrylamide gel electrophoresis. To enable the interpretation of the results, a number of references were applied along with the molecular weight marker (Figure S2). The gel was imaged by GelDoc Go Imaging System (Biorad, Hercules, CA, USA) for protein/peptide signals and, thereafter, exposed to a phosphor-imager screen overnight and digitalized using the Cyclone Phosphor Imager system (PerkinElmer) for radioactivity signals. The amount of the sample radioactivity loaded on the gel was controlled by a reference drop of the same sample volume on a filter paper exposed to the same screen. The images were analyzed by ImageJ (NIH, Bethesda, MD, USA) and Image Lab (Biorad) software.
Radiolabeling of C803‐GIP
Figure 1S. Typical HPLC-chromatograms with UV absorption profile (lower panel) and radioactivity signal profile (upper panel) of [68Ga]Ga-C803-GIP.
Stability of [68Ga]Ga‐GIP‐C803 in human plasma
Stability of [68Ga]Ga-GIP-C803 was studied in human plasma, wherein the agent was incubated at 37 °C for under 30 seconds, 5 min, 45 min and 90 min. Thereafter, the samples were analyzed by polyacrylamide gel electrophoresis. […] The images were analyzed by ImageJ (NIH, US) and Image Lab (Biorad) software. […]

[2] = dynamic PET/CT organ distribution in pig; assay type: in vivo; settings: liver, total radioactivity, dynamic PET/CT
Excerpt: An anesthetized pig (25 kg) was positioned to include the abdomen with pancreas in the center of the 25 cm axial field of view of a Discovery MI PET/CT scanner (GE Healthcare, MI, USA) by assistance of a low-dose CT scout view (140 kV, 10 mAs). The details of the animal handling, preparation, and anesthesia have been previously described.
Attenuation correction was acquired by a 140 kV, 10–80 mA CT examination. The administration of [^68Ga]Ga-C803-GIP (17.3 MBq, corresponding to approximately 2.5 μg peptide or 0.10 μg/kg) was made upon the start of the baseline dynamic scan lasting for 90 min (30 frames; […]). The dynamic scan was followed by a static scan over the brain from 90–120 min post administration. A second PET investigation was performed after an additional 2 h to allow the radioactivity from the first scan to fade from the circulation by decay and excretion.
The GIP(1-42) infusion was continued until the end of the PET scan. Finally, after the last PET scan, a contrast-enhanced CT scan was performed to assist delineation of the tissues, e.g., the pancreas.
Segmentation of the tissues of interest (descending aorta, pancreas, spleen, kidney, liver, and muscle) was performed in PMOD (PMOD Technologies), and time–activity curves were expressed as SUV as detailed above.

[3] = human predicted dosimetry extrapolated from rat organ distribution (OLINDA/EXM 1.1)
Method: The predicted dosimetry in humans was calculated using [^68Ga]Ga-C803-GIP organ distribution data obtained in healthy male Sprague Dawley rats. The rat decay-uncorrected SUVs (SUVA) in various organs were normalized to the whole-body adult reference phantom weights (Equation (2)) in order to assess the residence times (MBq-h/MBq) of the tracer in those organs. The data from the measured time points (5, 10, 20, 40, 60, 90, 120, and 180 min) were used for trapezoidal approximation followed by the extrapolation from the last point to infinity by a single exponential fit. The bone marrow blood volume model was used for the determination of the residence time in bone marrow. The absorbed doses were calculated using OLINDA/EXM version 1.1 with reference to adult male and female phantoms (International Commission on Radiological Protection 60). (2) [%/organ]human=SUVA×(gorgan/kgweight)human

Question: Which results are given for `CC[C@H](C)[C@H](NC(=O)[C@H](CO)NC(=O)[C@H](Cc1ccc(O)cc1)NC(=O)[C@H](CC(=O)O)NC(=O)[C@H](CO)NC(=O)[C@@H](NC(=O)[C@H](Cc1ccccc1)NC(=O)[C@@H](NC(=O)CNC(=O)[C@H](CCC(=O)O)NC(=O)[C@@H](C)NC(=O)[C@@H](N)Cc1ccc(O)cc1)[C@@H](C)O)[C@@H](C)CC)C(=O)N[C@@H](C)C(=O)N[C@@H](CC(C)C)C(=O)N[C@@H](CC(=O)O)C(=O)N[C@@H](CCCCN)C(=O)N[C@H](C(=O)N[C@@H](Cc1c[nH]cn1)C(=O)N[C@@H](CCC(N)=O)C(=O)N[C@@H](CCC(N)=O)C(=O)N[C@@H](CCC(=O)O)C(=O)N[C@@H](Cc1ccccc1)C(=O)N[C@H](C(=O)N[C@@H](CCC(=O)O)C(=O)N[C@@H](Cc1c[nH]c2ccccc12)C(=O)N[C@@H](CC(C)C)C(=O)N[C@@H](CCCCN)C(=O)N[C@@H](C)C(=O)NCC(=O)NCC(=O)N[C@@H](Cc1c[nH]cn1)C(=O)N1CCC[C@H]1C(=O)N[C@@H](CO)C(=O)NCC(=O)N[C@@H](C)C(=O)N1CCC[C@H]1C(=O)N1CCC[C@H]1C(=O)N1CCC[C@H]1C(=O)N[C@@H](CO)C(=O)N[C@@H](CSCCS(=O)(=O)CCN1CCN(CC(=O)O)CCN(CC(=O)O)CCN(CC(=O)O)CC1)C(N)=O)[C@@H](C)CC)[C@@H](C)CC` [[^68Ga]Ga-C803-GIP, metal not drawn]?
Answer: time stable in human plasma ([1]; incubated <30 s, 5, 45, 90 min): at least 90 min; stability in human plasma (in words) ([1]; up to 90 min): stable; SUV at 0.5 h ([2]; read-out: uptake in the liver after 30 min): < 1 SUV; SUV at 1.5 h ([2]; read-out: uptake in the liver after 90 min): ~0.5 SUV; predicted absorbed radiation dose, kidneys, females ([3]; human): 0.773 mGy/MBq; predicted absorbed radiation dose, kidneys, males ([3]; human): 0.713 mGy/MBq; Equivalent dose, Adrenals, Female ([3]; human female phantom): 0.0124 mSv/MBq; Equivalent dose, Brain, Female ([3]; human female phantom): 0.000658 mSv/MBq; Equivalent dose, Breasts, Female ([3]; human female phantom): 0.00113 mSv/MBq; Equivalent dose, Gallbladder Wall, Female ([3]; human female phantom): 0.00555 mSv/MBq; Equivalent dose, Heart Wall, Female ([3]; human female phantom): 0.0362 mSv/MBq; Equivalent dose, Kidneys, Female ([3]; human female phantom): 0.773 mSv/MBq; Equivalent dose, LLI Wall, Female ([3]; human female phantom): 0.00196 mSv/MBq; Equivalent dose, Liver, Female ([3]; human female phantom): 0.00754 mSv/MBq; Equivalent dose, Lungs, Female ([3]; human female phantom): 0.0073 mSv/MBq; Equivalent dose, Muscle, Female ([3]; human female phantom): 0.00306 mSv/MBq; Equivalent dose, Osteogenic Cells, Female ([3]; human female phantom): 0.0145 mSv/MBq; Equivalent dose, Pancreas, Female ([3]; human female phantom): 0.0089 mSv/MBq; Equivalent dose, Red Marrow, Female ([3]; human female phantom): 0.0135 mSv/MBq; Equivalent dose, Skin, Female ([3]; human female phantom): 0.001 mSv/MBq; Equivalent dose, Small Intestine, Female ([3]; human female phantom): 0.00398 mSv/MBq; Equivalent dose, Spleen, Female ([3]; human female phantom): 0.0124 mSv/MBq; Equivalent dose, Stomach Wall, Female ([3]; human female phantom): 0.00374 mSv/MBq; Equivalent dose, Testes/Ovaries, Female ([3]; human female phantom): 0.00189 mSv/MBq; Equivalent dose, Thymus, Female ([3]; human female phantom): 0.00198 mSv/MBq; Equivalent dose, Thyroid, Female ([3]; human female phantom): 0.000543 mSv/MBq; Equivalent dose, ULI Wall, Female ([3]; human female phantom): 0.00371 mSv/MBq; Equivalent dose, Urinary Bladder Wall, Female ([3]; human female phantom): 0.00202 mSv/MBq; Equivalent dose, Adrenals, Male ([3]; human male phantom): 0.00936 mSv/MBq; Equivalent dose, Brain, Male ([3]; human male phantom): 0.000541 mSv/MBq; Equivalent dose, Breasts, Male ([3]; human male phantom): 0.000934 mSv/MBq; Equivalent dose, Gallbladder Wall, Male ([3]; human male phantom): 0.00515 mSv/MBq; Equivalent dose, Heart Wall, Male ([3]; human male phantom): 0.0319 mSv/MBq; Equivalent dose, Kidneys, Male ([3]; human male phantom): 0.713 mSv/MBq; Equivalent dose, LLI Wall, Male ([3]; human male phantom): 0.00166 mSv/MBq; Equivalent dose, Liver, Male ([3]; human male phantom): 0.006 mSv/MBq; Equivalent dose, Lungs, Male ([3]; human male phantom): 0.00576 mSv/MBq; Equivalent dose, Muscle, Male ([3]; human male phantom): 0.00227 mSv/MBq; Equivalent dose, Osteogenic Cells, Male ([3]; human male phantom): 0.0109 mSv/MBq; Equivalent dose, Pancreas, Male ([3]; human male phantom): 0.00777 mSv/MBq; Equivalent dose, Red Marrow, Male ([3]; human male phantom): 0.014 mSv/MBq; Equivalent dose, Skin, Male ([3]; human male phantom): 0.000859 mSv/MBq; Equivalent dose, Small Intestine, Male ([3]; human male phantom): 0.0031 mSv/MBq; Equivalent dose, Spleen, Male ([3]; human male phantom): 0.0101 mSv/MBq; Equivalent dose, Stomach Wall, Male ([3]; human male phantom): 0.00335 mSv/MBq; Equivalent dose, Testes/Ovaries, Male ([3]; human male phantom): 0.00137 mSv/MBq; Equivalent dose, Thymus, Male ([3]; human male phantom): 0.00178 mSv/MBq; Equivalent dose, Thyroid, Male ([3]; human male phantom): 0.000487 mSv/MBq; Equivalent dose, ULI Wall, Male ([3]; human male phantom): 0.00309 mSv/MBq; Equivalent dose, Urinary Bladder Wall, Male ([3]; human male phantom): 0.00152 mSv/MBq; Effective dose, Female ([3]; whole-body, human female phantom): 0.0237 mSv/MBq; Effective dose, Male ([3]; whole-body, human male phantom): 0.0217 mSv/MBq
